The values below come from patent publication US20240415886A1 (published 2024).

The test has as its target T1, p53 wild type peptide on HLA-A*02:01 (human).
T1 peptide: HMTEVVRRC
In words: activation reporter or marker.

B1: p53R175H peptide specific TCR (the inventive TCR) (TCR, V domains shown)
Valpha: GIQVEQSPPDLILQEGANSTLRCNFSDSVNNLQWFHQNPWGQLINLFYIPSGTKQNGRLSATTVATERYSLLYISSSQTTDSGVYFCAVNQAGTALIFGKGTTLSVSS
Vbeta: EPEVTQTPSHQVTQMGQEVILRCVPISNHLYFYWYRQILGQKVEFLVSFYNNEISEKSEIFDDQFSVERPDGSNFTLKIRSTKLEDSAMYFCASMGTGDEAFFGQGTRLTVV
For B1, the binding result is “no recognition”.
